# Changes are numbered by the printed parent chain.
# B1: 3D8_HuC24: humanized anti-ROR1 antibody; VH SEQ ID NO:9, VL SEQ ID NO:10, human IgG1 heavy and kappa light chain constant regions (antibody, V domains shown)
# VH: EVQLVESGGGLVQPGGSLRLSCAASGFTFSSYAMSWVRQAPGKGLEWVASINSGGSTYYPDSVKGRFTISRDNAKNSLYLQMNSLRAEDTAVYYCARVNYYGYGDYAMDYWGQGTLVTVSS
# VL: DIQMTQSPSSLSASVGDRVTITCQASQDISNYLTWFQQKPGKSPKTLIHRANRLVTGVPSRFSGSGSGTDFTFTISSLQPEDIATYYCLQYDEFPYTFGGGTKVEIK
# modifications: human IgG1 and kappa constant regions; 3D8_HuC24 VH; 3D8_HuC24 VL
# B2: 38F8_Hu57: humanized anti-ROR1 antibody; VH SEQ ID NO:17, VL SEQ ID NO:18, human IgG1 heavy and kappa light chain constant regions (antibody, V domains shown)
# VH: EVQLVESGGGLVQPGGSLRLSCAASGFTFSNYAMSWVRQAPEKRLEWVASISSGGPTYYPDSVKGRFTVSRDNSKNTLYLQMNSLRAEDTAVYYCARGYRYDVNWYFDVWGAGTMVTVSS
# VL: B1 VL with F71Y, T85I
# modifications: human IgG1 and kappa constant regions; 38F8_Hu57 VH; 38F8_Hu57 VL
# B3: Anti-human ROR1 antibody D10 (antibody, from another filing, V domains shown)
# VH: QVQLKESGPGLVAPSQTLSITCTVSGFSLTSYGVHWVRQPPGKGLEWLGVIWAGGFTNYNSALKSRLSISKDNSKSQVLLKMTSLQTDDTAMYYCARRGSSYSMDYWGQGTSVIVSS
# VL: EIVLSQSPAITAASLGQKVTITCSASSNVSYIHWYQQRSGTSPRPWIYEISKLASGVPVRFSGSGSGTSYSLTISSMEAEDAAIYYCQQWNYPLITFGSGTKLEIQ
# B4: Anti-ROR1 antibody UC961 (antibody, V domains shown)
# VH: QVQLQESGPGLVKPSQTLSLTCTVSGYAFTAYNIHWVRQAPGQGLEWMGSFDPYDGGSSYNQKFKDRLTISKDTSKNQVVLTMTNMDPVDTATYYCARGWYYFDYWGHGTLVTVSS
# VL: DIVMTQTPLSLPVTPGEPASISCRASKSISKYLAWYQQKPGQAPRLLIYSGSTLQSGIPPRFSGSGYGTDFTLTINNIESEDAAYYFCQQHDESPYTFGEGTKVEIK
# B5: 19F6_Hu35V1 (antibody, human IgG1, kappa, V domains shown)
# VH: QVQLQESGPGLVKPSQTLSLTCTVSGYSITSDYAWNWIRQFPGKGLEWIGYISYSGSIRYNPSLKSRVTISRDTSKNQFSLKLSSVTAADTAVYYCARGEITYYFDYWGQGTLVTVSS
# VL: ETTLTQSPAFMSATPGDKVTISCKASTSIDDDMNWYQQKPGEPPKLIISEGNTLRPGIPPRFSSSGYGTDFTFTINKIKSEDAATYYCLQSNDLPLTFGQGTKLEIKR
# notes: Humanized anti-human ROR1 antibody, human IgG1/kappa, expressed in Expi293F cells and purified with Protein A
# B6: 19F6_Hu35V1: humanized anti-ROR1 antibody; VH SEQ ID NO:1, VL SEQ ID NO:2, human IgG1 heavy and kappa light chain constant regions (antibody, V domains shown)
# VH: B5 VH
# VL: ETTLTQSPAFMSATPGDKVTISCKASTSIDDDMNWYQQKPGEPPKLIISEGNTLRPGIPPRFSSSGYGTDFTFTINKIKSEDAATYYCLQSNDLPLTFGQGTKLEIK
# modifications: human IgG1 and kappa constant regions; 19F6_Hu35V1 VH; 19F6_Hu35V1 VL
# How the values were obtained:
# human ROR1 ECD protein [1] = biological target: human ROR1 ECD protein (Homo sapiens, UniProt Q01973); assay: Dynamic affinity determination by Octet ForteBio; assay type: binding; settings: for kdis / kon: 1:1 kinetic binding model, UC961 value is an average of three determinations
# Sequence of human ROR1 ECD protein (Homo sapiens, UniProt Q01973) (Q01973 30-406 limits assumed): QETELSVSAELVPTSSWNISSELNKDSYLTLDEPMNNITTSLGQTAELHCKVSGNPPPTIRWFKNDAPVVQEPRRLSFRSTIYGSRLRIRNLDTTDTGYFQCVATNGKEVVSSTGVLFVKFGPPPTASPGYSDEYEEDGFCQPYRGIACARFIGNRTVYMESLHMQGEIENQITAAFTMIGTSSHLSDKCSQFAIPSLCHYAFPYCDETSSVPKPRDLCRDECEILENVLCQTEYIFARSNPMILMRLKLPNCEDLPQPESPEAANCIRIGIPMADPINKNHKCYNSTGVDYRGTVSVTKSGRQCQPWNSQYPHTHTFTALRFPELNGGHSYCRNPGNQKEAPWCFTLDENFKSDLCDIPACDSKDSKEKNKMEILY
# Method: The dynamic affinities of 19F6_Hu35V1, 3D8_HuC24, 38F8_Hu57 and the positive control PGP-1501 antibody UC961 to human ROR1 ECD protein were determined by Octet ForteBio method. The specific experimental steps were as follows: the anti-human IgG Fc AHC probe (ForteBio) was first bound to the antibody to be tested to a response signal value of 0.8-1.2 nm, and the dynamic affinity was measured by immersing the antibody-coated probe into wells containing human ROR ECD protein at different concentrations (16, 8, 4, 2, 1, 0.5, 0.25, and 0 μg/mL), the binding was conducted for 2-4 minutes, followed by dissociation for 4-6 minutes, 1:1 kinetic binding model was used for all fitting analysis.
# [2] = biological target: human ROR1 (on the cell surface) (human) (UniProt Q01973); assay: flow cytometry, Ba/F3-ROR1 cells, D10 as detection antibody
# Sequence of human ROR1 (on the cell surface) (human) (Q01973 30-937): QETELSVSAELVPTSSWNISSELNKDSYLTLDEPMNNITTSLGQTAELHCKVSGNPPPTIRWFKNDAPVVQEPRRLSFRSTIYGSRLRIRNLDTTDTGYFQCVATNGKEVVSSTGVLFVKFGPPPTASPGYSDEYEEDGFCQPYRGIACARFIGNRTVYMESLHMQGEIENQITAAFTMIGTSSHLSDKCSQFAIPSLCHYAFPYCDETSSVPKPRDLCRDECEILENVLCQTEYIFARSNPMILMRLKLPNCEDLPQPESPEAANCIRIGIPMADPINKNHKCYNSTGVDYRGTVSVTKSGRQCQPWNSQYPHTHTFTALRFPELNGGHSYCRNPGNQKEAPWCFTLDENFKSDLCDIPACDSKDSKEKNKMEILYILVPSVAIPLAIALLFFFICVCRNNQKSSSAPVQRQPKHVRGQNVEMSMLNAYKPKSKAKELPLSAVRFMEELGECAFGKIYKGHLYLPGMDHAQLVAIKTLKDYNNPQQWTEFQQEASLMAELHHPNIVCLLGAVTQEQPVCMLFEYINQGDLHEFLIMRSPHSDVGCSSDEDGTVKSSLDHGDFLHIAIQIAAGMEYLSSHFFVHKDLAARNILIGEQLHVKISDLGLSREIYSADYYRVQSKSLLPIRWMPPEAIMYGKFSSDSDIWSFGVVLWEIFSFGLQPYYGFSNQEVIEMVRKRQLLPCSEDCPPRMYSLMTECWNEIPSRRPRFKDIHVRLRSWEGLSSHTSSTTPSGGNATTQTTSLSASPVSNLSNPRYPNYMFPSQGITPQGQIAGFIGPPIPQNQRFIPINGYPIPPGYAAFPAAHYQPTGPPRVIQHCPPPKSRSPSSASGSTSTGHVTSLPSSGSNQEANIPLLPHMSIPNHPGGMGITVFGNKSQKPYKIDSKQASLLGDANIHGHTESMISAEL
# [3] = biological target: T1, human ROR1 (on the cell surface) (human, UniProt Q01973 30-937); assay: flow cytometry, Ba/F3-ROR1 cells
# T1 construct: whole, on cells; Ba/F3 cells carry it by lentiviral transduction; also called Ba/F3-ROR1; ROR1 on the surface of human cells
# T1 sequence (Q01973 30-937): as above
# Method: (§1) The affinities of 19F6_Hu35V1, 3D8_HuC24 and 38F8_Hu57 to ROR1 on the surface of human cells were determined by flow cytometry.
# (§2) In addition to Ba/F3-ROR1 overexpression cells, human mantle cell lymphoma cell line Jeko-1 (Nanjing Cobioer Biosciences), human colon cancer cell line HT-29 (the Cell Bank of the Chinese Academy of Sciences), human lung cancer cell line A549 (the Cell Bank of the China Academy of Sciences) were also used for flow cytometry analysis. Anti-ROR1 antibody UC961 (the VH and VL of antibody UC961 were SEQ ID NO: 5 and 6 disclosed in WO2018237335A1, respectively) and anti-TNP antibody were used as positive control and negative control, respectively. Ba/F3-ROR1, Jeko-1, HT-29 and A549 cells were incubated with different concentration gradients of the purified humanized antibodies on ice for 30 minutes, respectively, washed with flow buffer (PBS+2% FBS) twice, then incubated with goat anti-human fluorescent secondary antibody (Jackson ImmunoResearch) on ice for 30 minutes, and finally loaded on the machine for detection.
# [4] = biological target: T1, human ROR1 (on the cell surface); assay: flow cytometry, A549 cells
# Method: as §1, §2
# [5] = biological target: T1, human ROR1 (on the cell surface); assay: flow cytometry, HT-29 cells
# Method: as §1, §2
# [6] = biological target: T1, human ROR1 (on the cell surface); assay: flow cytometry, HT-29 cells; remark: listed apart in the source
# Method: as §1, §2
# [7] = biological target: T1, human ROR1 (on the cell surface); assay: flow cytometry, Jeko-1 cells
# [8] = biological target: T1, human ROR1 (on the cell surface); assay: flow cytometry, Ba/F3-ROR1 cells; remark: listed apart in the source
# Method: as §1, §2
# [9] = biological target: T1, human ROR1 (on the cell surface); assay: flow cytometry, A549 cells; remark: listed apart in the source
# Method: as §1, §2
# [10] = biological target: T1, human ROR1 (on the cell surface); assay: flow cytometry, Jeko-1 cells; remark: listed apart in the source
# Method: as §1, §2
# [11] = biological target: T1, human ROR1 (on the cell surface); assay: flow cytometry, A549 cells; remark: listed apart in the source
# Method: as §1, §2
# [12] = biological target: T1, human ROR1 (on the cell surface); assay: flow cytometry, Ba/F3-ROR1 cells; remark: listed apart in the source
# Method: as §1, §2
# [13] = biological target: T1, human ROR1 (on the cell surface); assay: flow cytometry, HT-29 cells; remark: listed apart in the source
# Method: as §1, §2
# human ROR1 ECD protein [14] = biological target: T2, human ROR1 ECD protein (human, UniProt Q01973 30-406); assay: BLI (Octet ForteBio), antibody on AHC probe, ROR1 ECD in solution, 1:1 model; average of three determinations
# T2 construct: extracellular domain; also called human ROR ECD protein
# T2 sequence (Q01973 30-406): as the sequence (Q01973 30-406 limits assumed) above
# [15] = biological target: T1, human ROR1 (on the cell surface); assay: flow cytometry, Jeko-1 cells; remark: listed apart in the source
# Method: as §1, §2
# human ROR1 ECD protein [16] = biological target: T2, human ROR1 ECD protein; assay: BLI (Octet ForteBio), antibody on AHC probe, ROR1 ECD in solution
# Method: The dynamic affinities of 19F6_Hu35V1, 3D8_HuC24, 38F8_Hu57 and the positive control PGP-1501 antibody UC961 to human ROR1 ECD protein were determined by Octet ForteBio method.
molecule,measurement,setting,value
B1,kdis,human ROR1 ECD protein [1],0.0153 s⁻¹
same,kon,human ROR1 ECD protein [1],586000 M⁻¹ s⁻¹
same,affinity versus control antibody UC961,human ROR1 ECD protein [1]; versus UC961,comparable
B2,kdis,human ROR1 ECD protein [1],0.00242 s⁻¹
same,kon,human ROR1 ECD protein [1],241000 M⁻¹ s⁻¹
same,affinity versus control antibody UC961,human ROR1 ECD protein [1]; versus UC961,comparable
B3,positive rate,[2],100%
B4,EC50,[3],0.31 nM
same,EC50,[4],0.21 nM
same,EC50,[5],0.2 nM
same,EC50,[6],0.21 nM
same,EC50,[7],0.36 nM
same,EC50,[8],1.07 nM
same,EC50,[9],0.46 nM
same,EC50,[10],0.14 nM
same,EC50,[11],0.16 nM
same,EC50,[12],0.3 nM
same,EC50,[13],0.37 nM
same,Kd,human ROR1 ECD protein [14],8.73 nM
same,koff,human ROR1 ECD protein [14],0.0112 s⁻¹
same,kon,human ROR1 ECD protein [14],1.26e+06 M⁻¹ s⁻¹
same,EC50,[15],0.06 nM
B5,fold stronger affinity (KD) than control antibody UC961,human ROR1 ECD protein [16],5.4 fold
B6,kdis,human ROR1 ECD protein [1],0.000863 s⁻¹
same,kon,human ROR1 ECD protein [1],538000 M⁻¹ s⁻¹
same,dissociation rate versus control antibody UC961 (as shown by the Kdis value),human ROR1 ECD protein [1]; versus UC961,significantly slower

# Reference: US20240269312A1, “ANTIBODY DRUG CONJUGATE, AND PREPARATION METHOD THEREFOR AND USE THEREOF” (SICHUAN KELUN-BIOTECH BIOPHARMACEUTICAL CO., LTD., priority 2021, published 2024)
